Measured values from patent US9658208B2, “Methods and G proteins for screening and identifying ligands of G protein-coupled receptors” (Fred Hutchinson Cancer Research Center, priority 2011, dated 2017).

Assays:
[1] = molecular target: T1, M2AchR (Rattus norvegicus, UniProt P10980); assay: CRE-SEAP reporter gene assay, stably versus transiently expressed chimeric G proteins; format: cell-based; conditions: cells transiently expressing the chimera construct, 10 uM acetylcholine
T1 construct: expressed in transfected cells; host or cells: HEK-293 (chimera stably or transiently expressed; M2AchR transiently transfected)
T1 sequence (P10980 1-466): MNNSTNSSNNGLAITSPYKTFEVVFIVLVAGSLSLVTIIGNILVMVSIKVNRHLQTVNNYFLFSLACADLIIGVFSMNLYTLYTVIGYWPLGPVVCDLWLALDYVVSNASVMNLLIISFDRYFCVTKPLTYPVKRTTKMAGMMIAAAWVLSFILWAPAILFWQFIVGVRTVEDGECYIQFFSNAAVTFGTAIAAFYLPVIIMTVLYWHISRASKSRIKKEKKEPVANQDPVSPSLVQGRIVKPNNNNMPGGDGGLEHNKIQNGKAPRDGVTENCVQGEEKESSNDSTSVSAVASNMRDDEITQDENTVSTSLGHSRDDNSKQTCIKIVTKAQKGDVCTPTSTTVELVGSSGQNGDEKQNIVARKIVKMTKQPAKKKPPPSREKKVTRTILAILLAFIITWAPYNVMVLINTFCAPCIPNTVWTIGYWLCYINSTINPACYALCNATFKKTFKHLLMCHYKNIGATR
Method: The ligand-induced SEAP activity for cells stably transfected and expressing Gαs-based chimeric G proteins was compared with that of cells transiently expressing Gαs-based chimeric G proteins. Stable expression is achieved by integration of the construct of interest into the target cell's chromosome. Cell lines were prepared that stably expressed Gαs-Gαt-13, Gαs-Gαi-13, and Gαs-Gαo-13 G protein chimeras. […] Therefore, cell lines stably expressing the Gαs-based chimeric G proteins can provide enhanced sensitivity for the screening and identification of GPCR ligands.
Preparation of cells stably expressing G protein chimeras: HEK-293 cells were transfected with each of the G protein chimeras of interest. Following transfection, the cells were split and diluted in media containing 0.7 mg/ml neomycin (Gibco). Cells were grown until clones could be picked. At least 25 clones from each of the stables were picked, and tested for their suitability as sensor cell lines, by transfecting them with CRE-SEAP and cDNA encoding the M2AchR receptor. Those stables that elicited the maximal signal to noise following activation of the GPCRs were chosen and maintained. […]
(§1) Following transfection, the cells were maintained for 48 hours in 200 ul serum free media containing 10 uM acetylcholine (Sigma). […] Fluorescence was then measured using a CytoFluor 4000 multi well plate reader (Applied Biosystems).

[2] = molecular target: T2, M2 muscarinic acetylcholine receptor (M2AchR) (Rattus norvegicus, UniProt P10980); assay: CRE-SEAP reporter gene assay, coupling of Gαs-based chimeric G proteins with M2AchR (transient); format: cell-based; conditions: HEK-293 cells; 10 uM acetylcholine
T2 construct: expressed in transfected cells; host or cells: HEK-293
T2 sequence (P10980 1-466): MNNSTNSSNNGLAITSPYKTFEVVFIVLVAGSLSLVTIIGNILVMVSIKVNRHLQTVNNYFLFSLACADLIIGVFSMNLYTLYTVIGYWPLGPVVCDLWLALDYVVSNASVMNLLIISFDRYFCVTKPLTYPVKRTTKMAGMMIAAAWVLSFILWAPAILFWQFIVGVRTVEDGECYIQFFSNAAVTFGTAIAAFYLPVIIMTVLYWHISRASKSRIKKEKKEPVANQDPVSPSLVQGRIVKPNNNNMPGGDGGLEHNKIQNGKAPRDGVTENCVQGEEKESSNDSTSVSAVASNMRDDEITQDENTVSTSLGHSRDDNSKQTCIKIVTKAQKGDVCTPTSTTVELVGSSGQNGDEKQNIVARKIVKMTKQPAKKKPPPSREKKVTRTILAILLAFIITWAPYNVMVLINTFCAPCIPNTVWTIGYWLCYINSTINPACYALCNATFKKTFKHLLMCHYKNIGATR
Method: The constructs encoding chimeric G proteins were made by substituting C-terminal amino acids of Gαs (SEQ ID NO: 1) with the corresponding C-terminal amino acid sequences of other Gα subunits. A first set of Gαs-based chimeric G proteins was prepared by designing constructs encoding seven Gαs-Gαi chimeras in which the C-terminal 5, 11, 13, 28, 65, 84, or 131 amino acids of Gαs were substituted with the corresponding C-terminal amino acids from the […]. Briefly, HEK-293 cells were cotransfected with chimera constructs together with the CRE-SEAP reporter gene construct and a cDNA encoding the M2 muscarinic acetylcholine receptor (M2AchR), a GPCR that couples to Gαo but not to Gαs and inhibits cAMP production. The transfected cells were cultured in the presence or absence of acetylcholine and then assayed for SEAP activity.
A series of chimeric constructs were prepared in which the final 13 C-terminal amino acids of the Gαs subunit were substituted with the final 13 C-terminal amino acids from Gαo, Gαz, Gαt, Gαq, or Gα15 subunits. Also tested were the Gαs-Gαi-13 and a chimera containing the last 5 C-terminal amino acids of Gαk (Gαs-Gαk-5 (SEQ ID NO: 2)). These chimeric constructs were tested for coupling with M2AchR. […] The Gαs-Gαo-13 (SEQ ID NO: […]) and Gαs-Gα15-13 (SEQ ID NO: 7) allowed approximately 2-fold increases in SEAP activity.
Chimeric G protein cloning: An insert containing rat Gαs cDNA was cut out using the restriction enzymes SaII and HinDIII, and ligated into pcDNA3.1(−) cut with XhoI and HinDIII. The chimeric G proteins with the desired C-terminal amino acid substitutions were prepared by PCR using Gαs as a template. More specifically, Gαs was PCR amplified between an internal EcoRI site and the stop codon, with a 3′ HinDIII placed immediately after the stop codon. A different 3′ oligonucleotide was used for each Gαs chimera and contained a 39 bp sequence that encoded the substituted amino acids at the C-terminus selected from the donor Gα subunit.
M2AchR GPCR cloning: Rat M2AchR receptor was cloned by PCR from cDNA templates (ATCC) and ligated into pcDNA 3.1(−) for expression in mammalian cells.
CRE-SEAP Reporter Gene Assay: 0.5×10^5 HEK-293 cells (ATCC) were seeded into each well of a 96 well plate 24 hours prior to transfection. cDNAs encoding M2AchR, SEAP reporters (Mercury Pathway Profiling System, BD Biosciences), and G protein chimeras were transfected into HEK-293 cells using lipofectamine reagent (Invitrogen) according to the manufacturer's protocols. […]
as §1

B1: Gαs-Gαt-13: Gαs-based chimeric G protein, final 13 C-terminal amino acids substituted with those of Gαt (protein)
chain: MGCLGNSKTEDQRNEEKAQREANKKIEKQLQKDKQVYRATHRLLLLGAGESGKSTIVKQMRILHVNGFNGEGGEEDVPDYASNSDGEKATKVQDIKNNLKEAIETIVAAMSNLVPPVELANPENQFRVDYILSVMNVPNFDFPPEFYEHAKALWEDEGVRACYERSNEYQLIDCAQYFLDKIDVIKQADYVPSDQDLLRCRVLTSGIFETKFQVDKVNFHMFDVGGQRDERRKWIQCFNDVTAIIFVVASSSYNMVIREDNQTNRLQEALNLFKSIWNNRWLRTISVILFLNKQDLLAEKVLAGKSKIEDYFPEFARYTTPEDATPEPGEDPRVTRAKYFIRDEFLRISTASGDGRHYCYPHFTCAVDTENIRRVFNDCRDIIIKENLKDCGLF
modifications: Chimeric protein
notes: Gαs-based chimeric G protein, final 13 C-terminal amino acids substituted with those of Gαt
- increase in SEAP activity [1]: approximately 10 fold
- ligand induced increases in SEAP activity mediated by M2AchR (in words) [2]: highest responses
